Experimental data from publication PMC3759463 (PLoS ONE, 2013).
pKd: −log10 of the molar value. Like-named read-outs stand apart in the source and are kept apart here. Peptide text beside a SMILES is read from it.

Key:
HLA-DRB5*01∶01 = target: T1, HLA-DRB5*01∶01 (Homo sapiens, UniProt P01903+Q30154); assay: biochemical; type: binding
T1 construct: expression of transmembrane-truncated versions of isolated α and in vivo biotinylated β chain molecules in E. coli; made in house

HLA-DRB1*15∶01 = target: T2, HLA-DRB1*15∶01 (Homo sapiens, UniProt P01903+P01911); assay: biochemical; type: binding; settings: C-terminally H6-tagged peptide, read-out: KD (nM) HLA-DRB1*15∶01 + tag
T2 construct: expression of transmembrane-truncated versions of isolated α and in vivo biotinylated β chain molecules in E. coli; made in house

HLA-DRB1*01∶01 = target: T3, HLA-DRB1*01∶01 (Homo sapiens, UniProt P01903+P01911, A100R/D57E/F55L/F60I/F76Y/I96L/L162R/M171V/P40L/Q125E/R42F/V115G/Y59C); assay: biochemical; type: binding; settings: C-terminally H6-tagged peptide, read-out: KD (nM) HLA-DRB1*01∶01 + tag
T3 construct: expression of transmembrane-truncated versions of isolated α and in vivo biotinylated β chain molecules in E. coli; made in house

[1] = target: HLA-DRB1*01∶01 (recombinant HLA-DR alpha chain with FOS zipper paired with HLA-DRB1*01∶01 beta chain with JUN zipper and BSP); assay: AlphaScreen or HTRF
[2] = target: HLA-DRB1*15∶01 (recombinant HLA-DR alpha chain with FOS zipper paired with HLA-DRB1*15∶01 beta chain with JUN zipper and BSP); assay: AlphaScreen or HTRF
[3] = target: HLA-DRB5*01∶01 (recombinant HLA-DR alpha chain with FOS zipper paired with HLA-DRB5*01∶01 beta chain with JUN zipper and BSP); assay: AlphaScreen or HTRF
[4] = C-terminally H6-tagged peptide, […], read-out: KD (nM) HLA-DRB5*01∶01 + tag

## CC(C)C[C@H](NC(=O)[C@H](CCCCN)NC(=O)[C@H](CC(C)C)NC(=O)[C@@H](NC(=O)[C@H](CC(N)=O)NC(=O)[C@H](CCC(N)=O)NC(=O)[C@H](CCCCN)NC(=O)[C@@H](NC(=O)[C@H](Cc1ccc(O)cc1)NC(=O)[C@H](CCCCN)NC(=O)[C@@H](N)Cc1ccc(O)cc1)C(C)C)[C@@H](C)O)C(=O)N[C@@H](C)C(=O)N[C@H](C(=O)N[C@@H](Cc1c[nH]cn1)C(=O)N[C@@H](Cc1c[nH]cn1)C(=O)N[C@@H](Cc1c[nH]cn1)C(=O)N[C@@H](Cc1c[nH]cn1)C(=O)N[C@@H](Cc1c[nH]cn1)C(=O)N[C@@H](Cc1c[nH]cn1)C(=O)O)[C@@H](C)O [Influenza A HA306–318 + tag] (H-YKYVKQNTLKLATHHHHHH-OH)
HLA-DRB5*01∶01; [4]
  Kd: 17 nM
HLA-DRB1*15∶01
  Kd: 345 nM

## CC(C)C[C@H](NC(=O)[C@@H](NC(=O)[C@H](Cc1ccccc1)NC(=O)[C@@H](NC(=O)[C@H](Cc1ccccc1)NC(=O)CNC(=O)[C@@H](N)CC(C)C)C(C)C)[C@@H](C)O)C(=O)N[C@H](C(=O)N[C@H](C(=O)N1CCC[C@H]1C(=O)N[C@@H](CO)C(=O)N[C@@H](CCC(=O)O)C(=O)N[C@@H](CCCNC(=N)N)C(=O)NCC(=O)N[C@@H](Cc1c[nH]cn1)C(=O)N[C@@H](Cc1c[nH]cn1)C(=O)N[C@@H](Cc1c[nH]cn1)C(=O)N[C@@H](Cc1c[nH]cn1)C(=O)N[C@@H](Cc1c[nH]cn1)C(=O)N[C@@H](Cc1c[nH]cn1)C(=O)O)C(C)C)[C@@H](C)O [Influenza A MP60–72 + tag] (H-LGFVFTLTVPSERGHHHHHH-OH)
HLA-DRB5*01∶01; [4]
  Kd: 13 nM
HLA-DRB1*01∶01
  Kd: 40 nM
HLA-DRB1*15∶01
  Kd: 282 nM

## CC(C)C[C@H](NC(=O)[C@@H](NC(=O)[C@H](Cc1ccccc1)NC(=O)[C@@H](NC(=O)[C@H](Cc1ccccc1)NC(=O)CNC(=O)[C@@H](N)CC(C)C)C(C)C)[C@@H](C)O)C(=O)N[C@H](C(=O)N[C@H](C(=O)N1CCC[C@H]1C(=O)N[C@@H](CO)C(=O)N[C@@H](CCC(=O)O)C(=O)N[C@@H](CCCNC(=N)N)C(=O)NCC(=O)O)C(C)C)[C@@H](C)O [Influenza A MP60–72, reference compound]
HLA-DRB5*01∶01; read-out: KD (nM) HLA-DRB5*01∶01 − tag
  Kd: 7 nM

## Hepatitis C (Hep C) peptide NS3_(218–235)
[1]
  pKd: 8.52
[2]
  pKd: 8.70

## Hepatitis C peptide Hep C-NS3_(218–235(H6))
[1]
  pKd: 8.30
[2]
  pKd: 8.70
[3]
  pKd: 7.43

## Influenza A peptide HA_(307–318(H6))
[1]
  pKd: 7.72
[2]
  pKd: 6.46
[3]
  pKd: 7.77

## Influenza A peptide HA_(307–318)
[1]
  pKd: 8.05
[2]
  pKd: 7.60
[3]
  pKd: 8.40

## Influenza A peptide MP_(60–73(H6))
[1]
  pKd: 7.40
[2]
  pKd: 6.55
[3]
  pKd: 7.89

## Influenza A peptide MP_(60–73)
[1]
  pKd: 7.77
[2]
  pKd: 6.57
[3]
  pKd: 8.15

## cytomegalovirus (CMV) peptide IE1_(211–225(H6))
[1]
  pKd: 7.38
[2]
  pKd: 6.90
[3]
  pKd: 8.10

## cytomegalovirus (CMV) peptide IE1_(211–225)
[3]
  pKd: 8.10
